Assay results as given in paper PMC11208909.

Biological target: TOPBP1 (UniProt Q92547)
Assay: co-IP of FLAG-HTATSF1 with endogenous TOPBP1
Conditions: reference: wild type; sites S748

- binding against the reference: lost
Substance: HIV Tat-specific factor 1 (HTATSF1) (from UniProt O43719) S748A
